The source of these data is patent US20230220042A1 (SHANGHAI JIAO TONG UNIVERSITY SCHOOL OF MEDICINE, published 2023).

T1: Biotin-FcγRIIB (human FcγRIIB, Sino Biological) (human, UniProt P31994 43-217, limits assumed, biotin-labeled)
T1 construct: Used at 1 µg/ml with Streptavidin-APC for flow cytometry and sorting; also called CD32b
T1 sequence (looked up): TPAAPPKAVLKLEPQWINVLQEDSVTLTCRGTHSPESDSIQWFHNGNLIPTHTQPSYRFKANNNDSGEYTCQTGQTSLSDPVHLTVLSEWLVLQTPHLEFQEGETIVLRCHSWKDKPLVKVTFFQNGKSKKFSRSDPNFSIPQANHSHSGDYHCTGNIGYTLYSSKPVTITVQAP

B1: human IgG2 anti-mouse CD40 surface displayed antibody, S267A/P271C (antibody, name in EU numbering)
light chain (with the P2A rest): DTVLTQSPALAVSPGERVTISCRASDSVSTLMHWYQQKPGQQPKLLIYLASHLESGVPARFSGSGSGTDFTLTIDPVEADDTATYYCQQSWNDPWTFGGGTKLELKRTVAAPSVFIFPPSDEQLKSGTASVVCLLNNFYPREAKVQWKVDNALQSGNSQESVTEQDSKDSTYSLSSTLTLSKADYEKHKVYACEVTHQGLSSPVTKSFNRGECGSGATNFSLLKQAGDVEENPG
heavy chain: EVQLVESDGGLVQPGRSLKLPCAASGFTFSDYYMAWVRQAPTKGLEWVASISYDGSSTYYRDSVKGRFTISRDNAKSTLYLQMDSLRSEDTATYYCGRHSSYFDYWGQGVMVTVSSASTKGPSVFPLAPCSRSTSESTAALGCLVKDYFPEPVTVSWNSGALTSGVHTFPAVLQSSGLYSLSSVVTVPSSNFGTQTYTCNVDHKPSNTKVDKTVERKCCVECPPCPAPPVAGPSVFLFPPKPKDTLMISRTPEVTCVVVDVAHEDCEVQFNWYVDGVEVHNAKTKPREEQFNSTFRVVSVLTVVHQDWLNGKEYKCKVSNKGLPAPIEKTISKTKGQPREPQVYTLPPSREEMTKNQVSLTCLVKGFYPSDIAVEWESNGQPENNYKTTPPMLDSDGSFFLYSKLTVDKSRWQQGNVFSCSVMHEALHNHYTQKSLSLSPGKLEPPPSTVSNMATVAVLVVLGAAIVTGAVVAFVMKMRRRNTGGKGGDYALAPGSQTSDLSLPDCKVMVHDPHSLA
notes: m1 with these Fc mutations (Eu numbering); copies: 2 + 2
B2: human IgG2 anti-mouse CD40 surface displayed antibody, S267E/P271W (antibody, name in EU numbering)
light chain (with the P2A rest): DTVLTQSPALAVSPGERVTISCRASDSVSTLMHWYQQKPGQQPKLLIYLASHLESGVPARFSGSGSGTDFTLTIDPVEADDTATYYCQQSWNDPWTFGGGTKLELKRTVAAPSVFIFPPSDEQLKSGTASVVCLLNNFYPREAKVQWKVDNALQSGNSQESVTEQDSKDSTYSLSSTLTLSKADYEKHKVYACEVTHQGLSSPVTKSFNRGECGSGATNFSLLKQAGDVEENPG
heavy chain: EVQLVESDGGLVQPGRSLKLPCAASGFTFSDYYMAWVRQAPTKGLEWVASISYDGSSTYYRDSVKGRFTISRDNAKSTLYLQMDSLRSEDTATYYCGRHSSYFDYWGQGVMVTVSSASTKGPSVFPLAPCSRSTSESTAALGCLVKDYFPEPVTVSWNSGALTSGVHTFPAVLQSSGLYSLSSVVTVPSSNFGTQTYTCNVDHKPSNTKVDKTVERKCCVECPPCPAPPVAGPSVFLFPPKPKDTLMISRTPEVTCVVVDVEHEDWEVQFNWYVDGVEVHNAKTKPREEQFNSTFRVVSVLTVVHQDWLNGKEYKCKVSNKGLPAPIEKTISKTKGQPREPQVYTLPPSREEMTKNQVSLTCLVKGFYPSDIAVEWESNGQPENNYKTTPPMLDSDGSFFLYSKLTVDKSRWQQGNVFSCSVMHEALHNHYTQKSLSLSPGKLEPPPSTVSNMATVAVLVVLGAAIVTGAVVAFVMKMRRRNTGGKGGDYALAPGSQTSDLSLPDCKVMVHDPHSLA
notes: as for B1
B3: human IgG2 anti-mouse CD40 surface displayed antibody, S267D (antibody, name in EU numbering)
light chain (with the P2A rest): DTVLTQSPALAVSPGERVTISCRASDSVSTLMHWYQQKPGQQPKLLIYLASHLESGVPARFSGSGSGTDFTLTIDPVEADDTATYYCQQSWNDPWTFGGGTKLELKRTVAAPSVFIFPPSDEQLKSGTASVVCLLNNFYPREAKVQWKVDNALQSGNSQESVTEQDSKDSTYSLSSTLTLSKADYEKHKVYACEVTHQGLSSPVTKSFNRGECGSGATNFSLLKQAGDVEENPG
heavy chain: EVQLVESDGGLVQPGRSLKLPCAASGFTFSDYYMAWVRQAPTKGLEWVASISYDGSSTYYRDSVKGRFTISRDNAKSTLYLQMDSLRSEDTATYYCGRHSSYFDYWGQGVMVTVSSASTKGPSVFPLAPCSRSTSESTAALGCLVKDYFPEPVTVSWNSGALTSGVHTFPAVLQSSGLYSLSSVVTVPSSNFGTQTYTCNVDHKPSNTKVDKTVERKCCVECPPCPAPPVAGPSVFLFPPKPKDTLMISRTPEVTCVVVDVDHEDPEVQFNWYVDGVEVHNAKTKPREEQFNSTFRVVSVLTVVHQDWLNGKEYKCKVSNKGLPAPIEKTISKTKGQPREPQVYTLPPSREEMTKNQVSLTCLVKGFYPSDIAVEWESNGQPENNYKTTPPMLDSDGSFFLYSKLTVDKSRWQQGNVFSCSVMHEALHNHYTQKSLSLSPGKLEPPPSTVSNMATVAVLVVLGAAIVTGAVVAFVMKMRRRNTGGKGGDYALAPGSQTSDLSLPDCKVMVHDPHSLA
notes: m1 with this Fc mutation (Eu numbering); copies: 2 + 2
B4: human IgG2 anti-mouse CD40 surface displayed antibody, S267E/P271V (antibody, name in EU numbering)
light chain (with the P2A rest): DTVLTQSPALAVSPGERVTISCRASDSVSTLMHWYQQKPGQQPKLLIYLASHLESGVPARFSGSGSGTDFTLTIDPVEADDTATYYCQQSWNDPWTFGGGTKLELKRTVAAPSVFIFPPSDEQLKSGTASVVCLLNNFYPREAKVQWKVDNALQSGNSQESVTEQDSKDSTYSLSSTLTLSKADYEKHKVYACEVTHQGLSSPVTKSFNRGECGSGATNFSLLKQAGDVEENPG
heavy chain: EVQLVESDGGLVQPGRSLKLPCAASGFTFSDYYMAWVRQAPTKGLEWVASISYDGSSTYYRDSVKGRFTISRDNAKSTLYLQMDSLRSEDTATYYCGRHSSYFDYWGQGVMVTVSSASTKGPSVFPLAPCSRSTSESTAALGCLVKDYFPEPVTVSWNSGALTSGVHTFPAVLQSSGLYSLSSVVTVPSSNFGTQTYTCNVDHKPSNTKVDKTVERKCCVECPPCPAPPVAGPSVFLFPPKPKDTLMISRTPEVTCVVVDVEHEDVEVQFNWYVDGVEVHNAKTKPREEQFNSTFRVVSVLTVVHQDWLNGKEYKCKVSNKGLPAPIEKTISKTKGQPREPQVYTLPPSREEMTKNQVSLTCLVKGFYPSDIAVEWESNGQPENNYKTTPPMLDSDGSFFLYSKLTVDKSRWQQGNVFSCSVMHEALHNHYTQKSLSLSPGKLEPPPSTVSNMATVAVLVVLGAAIVTGAVVAFVMKMRRRNTGGKGGDYALAPGSQTSDLSLPDCKVMVHDPHSLA
notes: as for B1
B5: human IgG2 anti-mouse CD40 surface displayed antibody, S267E/P271C (antibody, name in EU numbering)
light chain (with the P2A rest): DTVLTQSPALAVSPGERVTISCRASDSVSTLMHWYQQKPGQQPKLLIYLASHLESGVPARFSGSGSGTDFTLTIDPVEADDTATYYCQQSWNDPWTFGGGTKLELKRTVAAPSVFIFPPSDEQLKSGTASVVCLLNNFYPREAKVQWKVDNALQSGNSQESVTEQDSKDSTYSLSSTLTLSKADYEKHKVYACEVTHQGLSSPVTKSFNRGECGSGATNFSLLKQAGDVEENPG
heavy chain: EVQLVESDGGLVQPGRSLKLPCAASGFTFSDYYMAWVRQAPTKGLEWVASISYDGSSTYYRDSVKGRFTISRDNAKSTLYLQMDSLRSEDTATYYCGRHSSYFDYWGQGVMVTVSSASTKGPSVFPLAPCSRSTSESTAALGCLVKDYFPEPVTVSWNSGALTSGVHTFPAVLQSSGLYSLSSVVTVPSSNFGTQTYTCNVDHKPSNTKVDKTVERKCCVECPPCPAPPVAGPSVFLFPPKPKDTLMISRTPEVTCVVVDVEHEDCEVQFNWYVDGVEVHNAKTKPREEQFNSTFRVVSVLTVVHQDWLNGKEYKCKVSNKGLPAPIEKTISKTKGQPREPQVYTLPPSREEMTKNQVSLTCLVKGFYPSDIAVEWESNGQPENNYKTTPPMLDSDGSFFLYSKLTVDKSRWQQGNVFSCSVMHEALHNHYTQKSLSLSPGKLEPPPSTVSNMATVAVLVVLGAAIVTGAVVAFVMKMRRRNTGGKGGDYALAPGSQTSDLSLPDCKVMVHDPHSLA
notes: as for B1
B6: human IgG2 anti-mouse CD40 surface displayed antibody, S267E/D270H (antibody, name in EU numbering)
light chain (with the P2A rest): DTVLTQSPALAVSPGERVTISCRASDSVSTLMHWYQQKPGQQPKLLIYLASHLESGVPARFSGSGSGTDFTLTIDPVEADDTATYYCQQSWNDPWTFGGGTKLELKRTVAAPSVFIFPPSDEQLKSGTASVVCLLNNFYPREAKVQWKVDNALQSGNSQESVTEQDSKDSTYSLSSTLTLSKADYEKHKVYACEVTHQGLSSPVTKSFNRGECGSGATNFSLLKQAGDVEENPG
heavy chain: EVQLVESDGGLVQPGRSLKLPCAASGFTFSDYYMAWVRQAPTKGLEWVASISYDGSSTYYRDSVKGRFTISRDNAKSTLYLQMDSLRSEDTATYYCGRHSSYFDYWGQGVMVTVSSASTKGPSVFPLAPCSRSTSESTAALGCLVKDYFPEPVTVSWNSGALTSGVHTFPAVLQSSGLYSLSSVVTVPSSNFGTQTYTCNVDHKPSNTKVDKTVERKCCVECPPCPAPPVAGPSVFLFPPKPKDTLMISRTPEVTCVVVDVEHEHPEVQFNWYVDGVEVHNAKTKPREEQFNSTFRVVSVLTVVHQDWLNGKEYKCKVSNKGLPAPIEKTISKTKGQPREPQVYTLPPSREEMTKNQVSLTCLVKGFYPSDIAVEWESNGQPENNYKTTPPMLDSDGSFFLYSKLTVDKSRWQQGNVFSCSVMHEALHNHYTQKSLSLSPGKLEPPPSTVSNMATVAVLVVLGAAIVTGAVVAFVMKMRRRNTGGKGGDYALAPGSQTSDLSLPDCKVMVHDPHSLA
notes: as for B1
B7: human IgG2 anti-mouse CD40 surface displayed antibody, S267A/P271G (antibody, name in EU numbering)
light chain (with the P2A rest): DTVLTQSPALAVSPGERVTISCRASDSVSTLMHWYQQKPGQQPKLLIYLASHLESGVPARFSGSGSGTDFTLTIDPVEADDTATYYCQQSWNDPWTFGGGTKLELKRTVAAPSVFIFPPSDEQLKSGTASVVCLLNNFYPREAKVQWKVDNALQSGNSQESVTEQDSKDSTYSLSSTLTLSKADYEKHKVYACEVTHQGLSSPVTKSFNRGECGSGATNFSLLKQAGDVEENPG
heavy chain: EVQLVESDGGLVQPGRSLKLPCAASGFTFSDYYMAWVRQAPTKGLEWVASISYDGSSTYYRDSVKGRFTISRDNAKSTLYLQMDSLRSEDTATYYCGRHSSYFDYWGQGVMVTVSSASTKGPSVFPLAPCSRSTSESTAALGCLVKDYFPEPVTVSWNSGALTSGVHTFPAVLQSSGLYSLSSVVTVPSSNFGTQTYTCNVDHKPSNTKVDKTVERKCCVECPPCPAPPVAGPSVFLFPPKPKDTLMISRTPEVTCVVVDVAHEDGEVQFNWYVDGVEVHNAKTKPREEQFNSTFRVVSVLTVVHQDWLNGKEYKCKVSNKGLPAPIEKTISKTKGQPREPQVYTLPPSREEMTKNQVSLTCLVKGFYPSDIAVEWESNGQPENNYKTTPPMLDSDGSFFLYSKLTVDKSRWQQGNVFSCSVMHEALHNHYTQKSLSLSPGKLEPPPSTVSNMATVAVLVVLGAAIVTGAVVAFVMKMRRRNTGGKGGDYALAPGSQTSDLSLPDCKVMVHDPHSLA
notes: as for B1

The target of this experiment is T1, Biotin-FcγRIIB (human FcγRIIB, Sino …). As to the kind of experiment: NGS after FACS sort of 3T3-displayed Library2 for biotin-FcγRIIB binding.
On to B1, for which the “Enrichment factor (percentage after sorting/percentage before sorting)” value came to 37.4 and the “Increased factor (enrichment factor/wild-type enrichment factor)” value turned out to be 65.1.
The corresponding values for B2 are 24 and 41.8.
The corresponding values for B3 are 2.11 and 3.67.
For the molecule B4, the “Enrichment factor (percentage after sorting/percentage before sorting)” value was determined as 22.1 and the “Increased factor (enrichment factor/wild-type enrichment factor)” value came out at 38.4.
The matching figures for B5: 1000 and 1740.
The matching figures for B6: 42.7 and 74.3.
The corresponding values for B7 are 5.27 and 9.19.
